# Patent publication US20250073334A1
# Target: CpG-ST-E2 nanoparticle (ST-E2 with CpG 1826 conjugated in the internal cavity) (Geobacillus stearothermophilus)
# Assay: SpyTag-SpyCatcher reaction, SDS-PAGE
substance,measurement,value
SpyCatcher-H5 hemagglutinin construct,units of H5 conjugated per nanoparticle (units of H5 per nanoparticle),17.1
